Consider one molecule from patent publication US4745067A, “L-aminoacylases” (Microbial Chemistry Research Foundation, priority 1985, dated 1988).

Common to all, as to assay type: biochemical
Holding throughout (set-up): key: +: active; -: inactive
What all share (conditions): Table 7

Experiment [1] can be described thus: Comparison of substrate profiles of L-aminoacylases, substrate L-N-acetyl-methionine. How it is done: (§1) The substrate profiles of L-aminoacylase S1 and L-aminoacylase S2 of the present invention and conventional L-aminoacylases were measured.
(§2) L-aminoacylase S1 and L-aminoacylase S2 of the present invention was compared with commercially available L-aminoacylases in their activity by using N-acetyl derivatives of D- or L-methionine and L-threo-3-(3,4-dibenzyloxyphenyl) serine as substrates.

Experiment [2] can be described thus: Comparison of substrate profiles of L-aminoacylases, substrate D-N-acetyl-methionine. How it is done:
as §1, §2

Experiment [3] in a line: Comparison of substrate profiles of L-aminoacylases, substrate L-threo-N-acetyl-3-(3,4-dibenzyloxyphenyl)serine. How it is done:
as §1, §2

B1: Acylase I: commercially available aminoacylase (hog kidney), manufactured by Miles Laboratory (protein, UniProt P37111 2-407, looked up)
Aminoacylase-1: ASKGREGEHPSVTLFRQYLRIRTVQPEPDYGAAVAFLEERARQLGLGCQKVEVVPGHVVTVLTWPGTNPTLSSILLNSHTDVVPVFKEHWSHDPFEGFKDADGYIYGRGAQDMKCVSIQYLEAVRRLKVEGHHFPRTIHMTFVPDEEVGGHQGMELFVKRPEFQALRAGFALDEGLASPTDAFTVFYSERSPWWLRVTSTGKPGHGSRFIEDTAAEKLHKVINSILAFREKEKQRLQSNQLKPGAVTSVNLTMLEGGVAYNVVPATMSACFDFRVAPDVDLKAFEEQLQSWCQAAGEGVTFEFVQKWMETQVTSTDDSDPWWAAFSGVFKDMKLALELEICPASTDARYIRAAGVPALGFSPMNHTPVLLHDHDERLHEAVFLRGVDIYTQLLSALASVPALPSES
In the case of B1, the “Activity on substrate L-N-acetyl-methionine” value in experiment [1] is “+”. The “Activity on substrate D-N-acetyl-methionine” value in experiment [2] is “-”. Moreover, in experiment [3], the “Activity on substrate L-threo-N-acetyl-3-(3,4-dibenzyloxyphenyl)serine” value was “-”.
